According to US7030099B2, “Tumor specific promoters of the midkine gene that allow for selective expression in P53-inactivated cells” (Research Corporation Technologies, Inc., priority 2000, dated 2006):

Key:
[1] = tested on: human breast cancer cells OCUBM, MCF7, BT549; assay: Luciferase assay of c-erbB-2 promoter activity, breast cancer cells; assay type: cell-based; conditions: FIG. 7A
Procedure: With the transcription initiation site of the c-erbB-2 gene as +1, DNA that corresponded to a genomic region (p533) from −435 to +38 and that had the sequence set forth in SEQ ID NO: 7 was amplified by the PCR method, and then the DNA fragment was integrated into the pGEM-TEasy (manufactured by Promega), and the sequences of the PCR product was determined. Thus, after inserting this PCR product into the SmaI site of pGL2-Basic (manufactured by Promega), it was cleaved with BlnI/SmaI, PstI/SmaI, and BssHII/SmaI using the restriction enzyme sites present on the c-erbB-2 genomic gene to construct plasmids in which the genomic regions of c-erbB-2, p344 (−306/+38) (DNA having the base sequence set forth in SEQ ID NO: 8), p251 (−213/+38) (DNA having the base sequence set forth in SEQ ID NO: 9) and p124 (−86/+38) (DNA having the base sequence set forth in SEQ ID NO: 10) are localized upstream of the Firefly luciferase gene, respectively. Using the plasmid pGL2-Control (manufactured by Promega) having the promoter of SV40 virus and the plasmid pGL2-Basic (manufactured by Promega) containing no promoters, gene introduction was performed in human breast cancer cells OCUBM, MCF7, BT549, normal human fibroblasts HEF, MRC-5, human malignant melanoma A875, and human lung cancer cells QG-56, all of which were cultured in DMEM (Sigma) supplemented with 10% bovine fetal serum. Firstly, after 10 μg each of these plasmids and lipofectin (Life Technologies) were mixed, it was allowed to stand at room temperature for 30 minutes to form a complex of DNA and lipid. […] After 48 hours-culture, the cells were disrupted using the Dual-Luciferase Reporter Assay System (manufactured by Promega), and the Firefly luciferase activity therein was determined using the reagents in the same kit. In order to normalize the efficiency of gene introduction, 1 μg of pRL-TK plasmid (manufactured by Promega) was included in each gene-introduced group, and the Renilla luciferase activity by the TK promoter was determined, based on which the Firefly luciferase activity was corrected.

[2] = tested on: normal human fibroblasts HEF, MRC-5; assay: Luciferase assay of c-erbB-2 promoter activity, normal fibroblasts; assay type: cell-based; conditions: FIG. 7B
Procedure: (§1) With the transcription initiation site of the c-erbB-2 gene as +1, DNA that corresponded to a genomic region (p533) from −435 to +38 and that had the sequence set forth in SEQ ID NO: 7 was amplified by the PCR method, and then the DNA fragment was integrated into the pGEM-TEasy (manufactured by Promega), and the sequences of the PCR product was determined. Thus, after inserting this PCR product into the SmaI site of pGL2-Basic (manufactured by Promega), it was cleaved with BlnI/SmaI, PstI/SmaI, and BssHII/SmaI using the restriction enzyme sites present on the c-erbB-2 genomic gene to construct plasmids in which the genomic regions of c-erbB-2, p344 (−306/+38) (DNA having the base sequence set forth in SEQ ID NO: 8), p251 (−213/+38) (DNA having the base sequence set forth in SEQ ID NO: 9) and p124 (−86/+38) (DNA having the base sequence set forth in SEQ ID NO: 10) are localized upstream of the Firefly luciferase gene, respectively. Using the plasmid pGL2-Control (manufactured by Promega) having the promoter of SV40 virus and the plasmid pGL2-Basic (manufactured by Promega) containing no promoters, gene introduction was performed in human breast cancer cells OCUBM, MCF7, BT549, normal human fibroblasts HEF, MRC-5, human malignant melanoma A875, and human lung cancer cells QG-56, all of which were cultured in DMEM (Sigma) supplemented with 10% bovine fetal serum. Firstly, after 10 μg each of these plasmids and lipofectin (Life Technologies) were mixed, it was allowed to stand at room temperature for 30 minutes to form a complex of DNA and lipid. Then the complex, after removing the bovine fetal serum therefrom, was contacted with the cells. Eight hours later culture medium supplemented with bovine fetal serum was added. After 48 hours-culture, the cells were disrupted using the Dual-Luciferase Reporter Assay System (manufactured by Promega), and the Firefly luciferase activity therein was determined using the reagents in the same kit. In order to normalize the efficiency of gene introduction, 1 μg of pRL-TK plasmid (manufactured by Promega) was included in each gene-introduced group, and the Renilla luciferase activity by the TK promoter was determined, based on which the Firefly luciferase activity was corrected.

[3] = tested on: human malignant melanoma A875, human lung cancer cells QG-56; assay: Luciferase assay of c-erbB-2 promoter activity, non-breast tumor cells; assay type: cell-based; conditions: human malignant melanoma cells and human lung cancer cells; FIG. 7C
Procedure: as §1

breast cancer cells MCF7 = assay: In vitro sensitivity to GCV of promoter-TK gene-introduced cells; assay type: cell-based, human; conditions: GCV seven days, FIG. 8A
Procedure: (§2) In order to examine the cytotoxic effects using the p251 promoter, a suicide gene HSV-TK was ligated downstream of this promoter region (pro251-TK), this plasmid was expressed in cells, and a prodrug GCV was added to the culture of the gene-introduced cells. The measurement of cytotoxic effects by this system was carried out according to the method described in Moolten, Fla. Cancer Gene Ther., 1:279–287, 1994. Firstly, the cytomegalovirus (CMV) promoter of pcDNA3 (manufactured by Invitrogen) was removed using NruI and HindIII sites, into which the p251 promoter was inserted and then using the EcoRV site, the HSV-TK gene excised from pMK (Brinster, R L et al., Cell, 27:223–231, 1981) with BglI and EcoRI was inserted (pro251-TK). As a control, a pcDN3-derived plasmid (pro251) that contains no HSV-TK gene but has integrated the p251 promoter, and a pcDNA3-derived plasmid (CMV-TK) that has the HSV-TK gene and permits the expression of the HSV-TK gene were also used. Each of the plasmids ([…], pro251-TK, CMV-TK) was introduced using lipofectin into the breast cancer cells MCF7 or non-breast cancer cells A875. In order to utilize the expression of the Neo gene contained in pcDNA3 as a drug resistant marker, the transfected cells were cultured with 400 μg/ml of G418 (manufactured by Life Technologies) for ten days to establish the cells that express a respective gene. […]

[4] = tested on: non-breast cancer cells A875; assay: as above; assay type: cell-based, human; conditions: GCV seven days, FIG. 8B
Procedure: as §2

B1: p251: c-erbB-2 genomic region −213/+38, SEQ ID NO: 9 (nucleic acid, listed as Homo sapiens)
DNA: GGCAACCCAGGCGTCCCGGCGCTAGGAGGGACGACCCAGGCCTGCGCGAAGAGAGGGAGAAAGTGAAGCTGGGAGTTGCCGACTCCCAGACTTCGTTGGAATGCAGTTGGAGGGGGCGAGCTGGGAGCGCGCTTGCTCCCAATCACAGGAGAAGGAGGAGGTGGAGGAGGAGGGCTGCTTGAGGAAGTATAAGAATGAAGTTGTGAAGCTGAGATTCCCCTCCATTGGGACCGGAGAAACCAGGGGAGCCC
- promoter activity compared with promoter of SV40 virus [1]: more potent than the promoter of SV40 virus
- transcription activity compared with other c-erbB-2 promoter fragments [1]: higher transcription activity than the p533 promoter
- promoter activity compared with SV40 promoter [2]: lower than the SV40 promoter
- transcription activity compared with other c-erbB-2 promoter fragments [2]: low compared with the p344 promoter and with the p533 promoter
- transcription activity compared with SV40 promoter [3]: lower than the SV40 promoter
- transcription activity compared with p533 promoter [3]: about the same as that of p533 promoter
- sensitivity to GCV of cells expressing HSV-TK under the promoter (breast cancer cells MCF7): greater sensitivity to GCV than the parent strain
- sensitivity to GCV of cells expressing HSV-TK under the promoter [4]: very weak compared with of the parent strain
